According to publication PMC11847629:

Columns and labels:
[1] = CHX chase, Western blot, primary human trophoblasts; settings: glycan gained; control: untreated (respective controls)
[2] = GATA3 Western blot, primary human trophoblasts; settings: glycan gained; control: DMSO
[3] = CHX chase, Western blot, JEG3; settings: control: untreated (respective controls)
[4] = GATA3 Western blot, JEG3; settings: control: untreated
[5] = GATA3 Western blot, JEG3; mRNA equal; settings: glycan lost; control: WT-G plasmid
[6] = CHX chase, Western blot, JEG3, hypoxia; settings: glycan lost; control: WT-G plasmid under 2% O2
[7] = Hypoxic rise of GATA3 protein, Western blot, JEG3; settings: glycan lost; control: WT-G plasmid, 2% vs 21% O2
[8] = CHX chase, Western blot, JEG3, normoxia; settings: glycan lost; control: WT-G plasmid

GATA3 (GATA binding protein 3): TMG (OGA inhibitor)
degradation_or_half_life [1]: increases
expression_or_secretion [2]: increases
degradation_or_half_life ([3]; glycan gained): increases
expression_or_secretion ([4]; glycan gained): increases

GATA3 (GATA binding protein 3): Ac45S (OGT inhibitor)
degradation_or_half_life ([3]; glycan lost): decreases
expression_or_secretion ([4]; glycan lost): decreases

GATA3 (GATA binding protein 3): T322A-G
expression_or_secretion, fold_change [5]: decreases
degradation_or_half_life [6]: changes
expression_or_secretion [7]: abolishes
degradation_or_half_life [8]: decreases
